Patent US20110245473A1 (Chugai, published 2011)
Numbering of substitutions follows the chain as printed. Names and notes keep the numbering of the source.

Assays:
[1] = biological target: T1, soluble human FcRn (complex of FcRn and β2-microglobulin) (human, UniProt P55899 24-290; P61769 21-119); assay: SPR (Biacore 3000), antibody captured, human FcRn as analyte, pH 6.0
T1 construct: Expressed constructs contain the signal regions (FcRn Met1-Leu290; β2-microglobulin Met1-Met119); also called hFcRn
T1 sequence (P55899 24-290 limits assumed, chain 1 of 2): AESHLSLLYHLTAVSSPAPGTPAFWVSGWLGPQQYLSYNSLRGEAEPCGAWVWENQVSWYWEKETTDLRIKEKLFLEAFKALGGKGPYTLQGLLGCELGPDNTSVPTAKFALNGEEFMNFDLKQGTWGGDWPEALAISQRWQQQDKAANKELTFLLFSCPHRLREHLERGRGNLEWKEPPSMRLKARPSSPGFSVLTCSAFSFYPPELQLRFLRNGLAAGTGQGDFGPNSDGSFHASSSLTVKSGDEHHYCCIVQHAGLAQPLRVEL
T1 sequence (P61769 21-119 limits assumed, chain 2 of 2): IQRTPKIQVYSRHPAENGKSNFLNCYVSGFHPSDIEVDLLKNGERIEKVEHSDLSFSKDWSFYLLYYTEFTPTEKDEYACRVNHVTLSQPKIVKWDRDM

[2] = biological target: T2, SR344 (soluble human IL-6R, N-terminal 1st to 344th amino acids) (human, UniProt P08887 20-344, limits assumed); assay: SPR (Biacore T100), antibody captured on Protein A/G, SR344 as analyte, 37°C
T2 construct: also called recombinant soluble human IL-6 receptor; recombinant soluble IL-6 receptor
T2 sequence (looked up): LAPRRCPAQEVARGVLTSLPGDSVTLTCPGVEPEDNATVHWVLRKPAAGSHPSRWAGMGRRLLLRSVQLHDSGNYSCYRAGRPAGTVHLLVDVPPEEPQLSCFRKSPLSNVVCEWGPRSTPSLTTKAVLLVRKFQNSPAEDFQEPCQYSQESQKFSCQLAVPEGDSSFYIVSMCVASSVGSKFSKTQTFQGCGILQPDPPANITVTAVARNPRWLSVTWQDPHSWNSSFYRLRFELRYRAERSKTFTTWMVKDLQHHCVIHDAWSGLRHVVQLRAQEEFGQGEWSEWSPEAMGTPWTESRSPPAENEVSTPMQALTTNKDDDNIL

[3] = biological target: T2, SR344 (soluble human IL-6R, N-terminal …); assay: cell-based or functional assay
[4] = biological target: T2, SR344 (soluble human IL-6R, N-terminal …); assay: SPR (Biacore T100), SR344 as analyte, 37°C; end of the range tied by the KD values of Table 16
[5] = biological target: T3, recombinant human IL-6R sR (R&D systems) (human, UniProt P08887 20-358); assay: SPR (Biacore T100), antibody captured on Protein A, rhIL-6sR as analyte, 25°C
T3 construct: Bought soluble receptor; also called rhIL-6sR; rhIL-s6R
T3 sequence (looked up): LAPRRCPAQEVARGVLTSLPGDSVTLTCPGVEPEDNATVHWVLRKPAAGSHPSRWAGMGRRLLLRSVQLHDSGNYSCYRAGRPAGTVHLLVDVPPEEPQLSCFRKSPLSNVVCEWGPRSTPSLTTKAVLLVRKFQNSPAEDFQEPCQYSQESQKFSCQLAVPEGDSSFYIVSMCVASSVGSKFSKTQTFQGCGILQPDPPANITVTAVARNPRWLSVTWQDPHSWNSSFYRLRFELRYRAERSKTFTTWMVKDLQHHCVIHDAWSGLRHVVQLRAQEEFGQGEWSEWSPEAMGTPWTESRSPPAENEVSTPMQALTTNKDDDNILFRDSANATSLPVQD

[6] = biological target: T3, recombinant human IL-6R sR (R&D systems); assay: SPR (Biacore T100), antibody captured on Protein A/G, 37°C; end of the range tied by the KD values of Table 3
[7] = biological target: T2, SR344 (soluble human IL-6R, N-terminal …); assay: as above
[8] = biological target: T3, recombinant human IL-6R sR (R&D systems); assay: SPR (Biacore T100), antibody captured on Protein A, rhIL-6sR as analyte, 25°C; remark: listed apart in the source

B1: WT-M58 (antibody)
heavy: QVQLQESGPGLVRPSQTLSLTCTVSGYSITSDHAWSWVRQPPGRGLEWIGYISYSGITTYNPSLKSRVTMLRDTSKNQFSLRLSSVTAADTAVYYCARSLARTTAMDYWGQGSLVTVSSASTKGPSVFPLAPSSKSTSGGTAALGCLVKDYFPEPVTVSWNSGALTSGVHTFPAVLQSSGLYSLSSVVTVPSSNFGTQTYTCNVDHKPSNTKVDKTVERKSCVECPPCPAPPVAGPSVFLFPPKPKDTLMISRTPEVTCVVVDVSQEDPEVQFNWYVDGVEVHNAKTKPREEQFNSTFRVVSVLTVVHQDWLNGKEYKCKVSNKGLPAPIEKTISKTKGQPREPQVYTLPPSQEEMTKNQVSLTCLVKGFYPSDIAVEWESNGQPENNYKTTPPMLDSDGSFFLYSKLTVDKSRWQEGNVFSCSVMHEALHNHYTQKSLSLSP
light: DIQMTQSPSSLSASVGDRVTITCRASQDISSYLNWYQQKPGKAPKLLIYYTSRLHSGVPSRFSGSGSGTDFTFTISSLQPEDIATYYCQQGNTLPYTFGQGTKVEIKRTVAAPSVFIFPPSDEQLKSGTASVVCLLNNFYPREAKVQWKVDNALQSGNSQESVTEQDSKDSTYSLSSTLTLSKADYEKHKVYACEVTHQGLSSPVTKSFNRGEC
notes: L(WT) as L chain; copies: 2 + 2
binding relative to WT-IgG1 [1]: ~1.4 times of WT-IgG1

B2: WT-M73 (antibody)
heavy: B1 heavy with N432A
light: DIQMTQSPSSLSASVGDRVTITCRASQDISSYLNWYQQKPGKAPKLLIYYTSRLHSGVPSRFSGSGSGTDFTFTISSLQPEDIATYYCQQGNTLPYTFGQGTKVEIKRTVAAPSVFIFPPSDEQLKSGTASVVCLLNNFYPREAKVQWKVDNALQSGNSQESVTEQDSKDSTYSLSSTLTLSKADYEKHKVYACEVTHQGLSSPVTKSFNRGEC
notes: WT-M58 with alanine at position 434 (EU numbering); L(WT) as L chain; copies: 2 + 2
binding relative to WT-IgG1 [1]: ~3.8 times of WT-IgG1

B3: F2H/L39-IgG1 (antibody, V domains shown)
VH: QVQLQESGPGLVKPSETLSLTCAVSGYSISDDHAWSWVRQPPGEGLEWIGYISYSGITNYNPSLQDRVTISRDNSKNTLYLQMNSLRAEDTAVYYCARLLARATAMDYWGQGILVTVSS
VL: DIQMTQSPSSLSASVGDSVTITCQASEDISSYLNWYQQKPGKAPELLIYYGSELESGVPSRFSGSGSGTDFTFTISSLEAEDAATYYCGQGNRLPYTFGQGTKVEIER
ka relative to PF1-IgG1 [2]: ~0.5 fold of PF1-IgG1
BaF/gp130-neutralizing activity, 100% inhibitory concentration, against WT [3]: ≥ 100 times higher than WT

B4: Fv3-M73 (antibody, V domains shown)
VH: B3 VH with Y27H, D31H, Y51F, S63T, D66G, L99S, A103T, Q111E, I113T
VL: B3 VL with E27R, Y32H, E53H, E55L
notes: also called H chain VH4-M73, L chain VL1-kappa
fold higher affinity than TOCILIZUMAB [4]: 3 times

B5: Fv4-M73 (antibody, V domains shown)
VH: B3 VH with Y27H, D31H, Y51F, D66G, L99S, A103T, Q111E, I113T
VL: B3 VL with E27T, Y32H, E53H, E55L
notes: also called H chain VH3-M73, L chain VL3-kappa
fold higher affinity than TOCILIZUMAB [4]: 2 times

B6: RD-6 (antibody, V domains shown)
VH: QVQLQESGPGLVRPSQTLSLTCTVSGYSITSDHAWSWVRQPPGRGLEWIGYISYSGITTYNPSLKSRVTMLRDTSKNQFSLRLSSVTAADTAVYYCARLLARATAMDYWGQGSLVTVSS
VL: DIQMTQSPSSLSASVGDRVTITCRASQDISSYLNWYQQKPGKAPKLLIYYTSRLHSGVPSRFSGSGSGTDFTFTISSLQPEDIATYYCQQGNTLPYTFGQGTKVEIK
fold higher affinity than WT [5]: ~50 times
BaF/gp130-neutralizing activity, 100% inhibitory concentration, against WT [3]: ~50 times higher than WT

B7: H53/L28 (antibody, IgG1, V domains shown)
VH: QVQLQESGPGLVKPSETLSLTCAVSGYSISDDHAWSWVRQPPGEGLEWIGYISYSGITNYNPSLKGRVTISRDTSKNQFSLKLSSVTAADTAAYYCARSLARTTAMDYWGEGTLVTVSS
VL: B6 VL with R18S, R24Q, K45E, T51G, R53E, Q79E, P80A, I83A, T93S, K107E
notes: made from the humanized PM-1 IgG1 vectors; also called altered antibody H53/L28
fold reduction of KD compared to WT [2]: ~6 fold

B8: RDC-23 (antibody, V domains shown)
VH: B6 VH with L99V, A103I
VL: B6 VL with Q89G, T93R
notes: IgG; also called H chain RDC-5H, L chain RDC-11L
BaF/gp130-neutralizing activity, 100% inhibitory concentration, against WT [3]: ~100 times higher than WT
fold improved affinity compared to WT [6]: 40 to 60 times
fold improved affinity compared to WT [7]: 40 to 60 times

B9: PF1 antibody (antibody, IgG1, V domains shown)
VH: B7 VH with S99V, T103I
VL: DIQMTQSPSSLSASVGDSVTITCQASQDISSYLNWYQQKPGKAPELLIYYGSELHSGVPSRFSGSGSGTDFTFTISSLEAEDAATYYCGQGNRLPYTFGQGTKVEIE
notes: also called PF1-IgG1; PF1_H/PF1_L
fold improved affinity compared to WT [2]: ~150 times

B10: RDC-8 (antibody, V domains shown)
VH: B6 VH with A103I
VL: B6 VL
notes: IgG; also called H chain RDC-8H, L chain L(WT)
koff [8]: 3.8e-05 s⁻¹
